Data taken from patent US20190112340A1.

How the values were obtained:
[1] = target: sc9-10 DS-Cav1 N183GC, N428C S46G-N67I-E92D-S215P-K465Q (A2); experiment: BLI (Octet), F on Ni-NTA tips, Fab in solution
[2] = target: sc9-10 DS-Cav1 A149C, Y458C S46G-N67I-E92D-S215P-K465Q (A2); experiment: BLI (Octet), F on Ni-NTA tips, Fab in solution
[3] = target: RSV F sc9 DS-Cav1 (human RSV subtype A (strain A2)); experiment: BLI (Octet), F on Ni-NTA tips, Fab in solution
[4] = target: sc9-10 DS-Cav1 N183GC,N428C; experiment: BLI (Octet), F on Ni-NTA tips, Fab in solution
[5] = target: sc9-10 DS-Cav1 A149C, Y458C S46G-S215P-K465Q (A2); experiment: BLI (Octet), F on Ni-NTA tips, Fab in solution
[6] = target: sc9-10 DS-Cav1 A149C, Y458C S46G-E92D-S215P-K465Q (A2); experiment: BLI (Octet), F on Ni-NTA tips, Fab in solution
[7] = target: sc9-10 A DS-Cav1 A149C, Y458C; experiment: BLI (Octet), F on Ni-NTA tips, Fab in solution
[8] = target: RSV F DS-Cav1 (human RSV subtype A (strain A2)) (UniProt P03420); experiment: BLI (Octet), F on Ni-NTA tips, Fab in solution
[9] = target: sc10 DS-Cav1; experiment: BLI (Octet), F on Ni-NTA tips, Fab in solution
[10] = target: sc9-10 DS-Cav1 N183GC, N428C S46G-N67I-E92D-S215P-K465Q (A2); experiment: BLI (Octet), D25 Fab binding after/before stress
[11] = target: sc9-10 DS-Cav1 A149C, Y458C S46G-N67I-E92D-S215P-K465Q (A2); experiment: BLI (Octet), D25 Fab binding after/before stress
[12] = target: RSV F sc9 DS-Cav1 (human RSV subtype A (strain A2)); experiment: BLI (Octet), D25 Fab binding after/before stress
[13] = target: sc9-10 DS-Cav1 N183GC,N428C; experiment: BLI (Octet), D25 Fab binding after/before stress
[14] = target: sc9-10 DS-Cav1 A149C, Y458C S46G-S215P-K465Q (A2); experiment: BLI (Octet), D25 Fab binding after/before stress
[15] = target: sc9-10 DS-Cav1 A149C, Y458C S46G-E92D-S215P-K465Q (A2); experiment: BLI (Octet), D25 Fab binding after/before stress
[16] = target: sc9-10 A DS-Cav1 A149C, Y458C; experiment: BLI (Octet), D25 Fab binding after/before stress
[17] = target: RSV F DS-Cav1 (human RSV subtype A (strain A2)) (UniProt P03420); experiment: BLI (Octet), D25 Fab binding after/before stress
[18] = target: sc10 DS-Cav1; experiment: BLI (Octet), D25 Fab binding after/before stress
[19] = target: RSV F sc9 DS-Cav1 (human RSV subtype A (strain A2)); experiment: D25 binding to heat-treated protein relative to the untreated protein (physical stability, FIG. 1E)
[20] = target: bRSV F 391-2 DS-Cav1 (bovine RSV, strain 391-2) (UniProt P22167); experiment: Fab binding to purified bRSV F trimer (Octet BLI as in Example 1)
[21] = target: bRSV F 391-2 post-F (bovine RSV, strain 391-2) (UniProt P22167); experiment: as above
[22] = target: sc4 DS-Cav1; experiment: BLI (Octet), F on Ni-NTA tips, Fab in solution
[23] = target: sc11 DS-Cav1; experiment: BLI (Octet), F on Ni-NTA tips, Fab in solution
[24] = target: sc9-10 DS-Cav1 Q98C, Q361C S46G-E92D-L95M-S215P-I217P-I221M-R429K-K465Q (Long (VR26)); experiment: BLI (Octet), F on Ni-NTA tips, Fab in solution
[25] = target: RSV F sc9-42 DS-Cav1 (human RSV subtype A (strain A2)) (UniProt P03420); experiment: BLI (Octet), F on Ni-NTA tips, Fab in solution
[26] = target: sc8 DS-Cav1; experiment: BLI (Octet), F on Ni-NTA tips, Fab in solution
[27] = target: sc9-10 DS-Cav1 Q98C, Q361C L95M-I221M-R429K (B18537); experiment: BLI (Octet), F on Ni-NTA tips, Fab in solution
[28] = target: sc9-19 DS-Cav1; experiment: BLI (Octet), F on Ni-NTA tips, Fab in solution
[29] = target: sc9-24 DS-Cav1; experiment: BLI (Octet), F on Ni-NTA tips, Fab in solution
[30] = target: RSV F sc9-41 DS-Cav1 (human RSV subtype A (strain A2)) (UniProt P03420); experiment: BLI (Octet), F on Ni-NTA tips, Fab in solution
[31] = target: sc9 DS-Cav1-105Q; experiment: BLI (Octet), F on Ni-NTA tips, Fab in solution
[32] = target: RSV F sc9-10 DS-Cav1 (human RSV subtype A (strain A2)); experiment: BLI (Octet), F on Ni-NTA tips, Fab in solution
[33] = target: RSV F sc9-9 DS-Cav1 (human RSV subtype A (strain A2)) (UniProt P03420); experiment: BLI (Octet), F on Ni-NTA tips, Fab in solution
[34] = target: bRSV F 391-2 post-F (bovine RSV, strain 391-2) (UniProt P22167); experiment: Motavizumab binding to stressed post-F protein as a fraction of the untreated protein (physical stability)

Substance D25 Fab has a Kd [1] of 0.2 nM, a Kd [2] of 0.6 nM and a Kd [3] of 0.8 nM. The Kd [4] was 0.2 nM, the Kd [5] was 0.1 nM and the Kd [6] was 0.2 nM. The Kd [7] was 0.2 nM, the Kd [8] was 0.15 nM and the Kd [9] was 0.3 nM. The fractional D25 reactivity, 50 °C [10] was 1, the fractional D25 reactivity, 70 °C [10] was 0.9 and the fractional D25 reactivity, freeze-thaw [10] was 0.2. It also gave a fractional D25 reactivity, osmolality 10 mM [10] of 0.8, a fractional D25 reactivity, osmolality 3000 mM [10] of 0.7 and a fractional D25 reactivity, pH 10.0 [10] of 0.5. The fractional D25 reactivity, 50 °C [11] was 1, the fractional D25 reactivity, 70 °C [11] was 0.9 and the fractional D25 reactivity, freeze-thaw [11] was 0.1. It also gave a fractional D25 reactivity, osmolality 10 mM [11] of 0.8, a fractional D25 reactivity, osmolality 3000 mM [11] of 0.7 and a fractional D25 reactivity, pH 10.0 [11] of 0.7. The fractional D25 reactivity, 50 °C [12] was 0.4, the fractional D25 reactivity, 70 °C [12] was 0.4 and the fractional D25 reactivity, freeze-thaw [12] was 0.2. The fractional D25 reactivity, osmolality 10 mM [12] was 0.1, the fractional D25 reactivity, osmolality 3000 mM [12] was 0.1 and the fractional D25 reactivity, pH 3.5 [12] was 0.2. It also gave a fractional D25 reactivity, pH 10.0 [12] of 0.1, a fractional D25 reactivity, 10 cycles freeze/thaw with 5% glycerol [13] of 0.6 and a fractional D25 reactivity, 10 cycles freeze/thaw with 10% glycerol [13] of 0.7. The fractional D25 reactivity, 50 °C [13] was 1, the fractional D25 reactivity, 70 °C [13] was 0.5 and the fractional D25 reactivity, freeze-thaw [13] was 0.3. It also gave a fractional D25 reactivity, osmolality 10 mM [13] of 0.9, a fractional D25 reactivity, osmolality 3000 mM [13] of 0.4 and a fractional D25 reactivity, pH 3.5 [13] of 2.6. The fractional D25 reactivity, pH 10.0 [13] was 0.7, the fractional D25 reactivity, 50 °C [14] was 1 and the fractional D25 reactivity, 70 °C [14] was 0.9. The fractional D25 reactivity, freeze-thaw [14] was 0.1, the fractional D25 reactivity, osmolality 10 mM [14] was 0.7 and the fractional D25 reactivity, osmolality 3000 mM [14] was 0.8. It also gave a fractional D25 reactivity, pH 10.0 [14] of 0.4, a fractional D25 reactivity, 50 °C [15] of 0.9 and a fractional D25 reactivity, 70 °C [15] of 0.8. It also gave a fractional D25 reactivity, freeze-thaw [15] of 0.2, a fractional D25 reactivity, osmolality 10 mM [15] of 0.5 and a fractional D25 reactivity, osmolality 3000 mM [15] of 0.6. For the same substance, the fractional D25 reactivity, pH 3.5 [15] was 3.8, the fractional D25 reactivity, pH 10.0 [15] was 0.6 and the fractional D25 reactivity, 10 cycles freeze/thaw with 5% glycerol [16] was 0.6. It also gave a fractional D25 reactivity, 10 cycles freeze/thaw with 10% glycerol [16] of 0.9, a fractional D25 reactivity, 50 °C [16] of 1 and a fractional D25 reactivity, 70 °C [16] of 0.8. It also gave a fractional D25 reactivity, freeze-thaw [16] of 0.3, a fractional D25 reactivity, osmolality 10 mM [16] of 0.7 and a fractional D25 reactivity, osmolality 3000 mM [16] of 0.6. The fractional D25 reactivity, pH 3.5 [16] was 2.3, the fractional D25 reactivity, pH 10.0 [16] was 0.7 and the fractional D25 reactivity, 50 °C [17] was 0.9. It also gave a fractional D25 reactivity, 70 °C [17] of 0, a fractional D25 reactivity, freeze-thaw [17] of 0.1 and a fractional D25 reactivity, osmolality 10 mM [17] of 0.9. It also gave a fractional D25 reactivity, osmolality 3000 mM [17] of 1, a fractional D25 reactivity, pH 3.5 [17] of 0.8 and a fractional D25 reactivity, pH 10.0 [17] of 0.5. It also gave a fractional D25 reactivity, 50 °C [18] of 0.3, a fractional D25 reactivity, 70 °C [18] of 0.3 and a fractional D25 reactivity, freeze-thaw [18] of 0.1. The fractional D25 reactivity, osmolality 10 mM [18] was 0.1, the fractional D25 reactivity, osmolality 3000 mM [18] was 0.1 and the fractional D25 reactivity, pH 3.5 [18] was 0.2. For the same substance, the fractional D25 reactivity, pH 10.0 [18] was 0.2 and the percent still active (site Ø retained) after 1 h at 70 °C [19] was 39%.

Motavizumab Fab was tested, and the Kd [20] was 0.8 nM, the Kd [21] was 0.6 nM and the Kd [1] was 0.6 nM. For the same substance, the Kd [22] was 7.6 nM, the Kd [2] was 0.1 nM and the Kd [3] was 13.7 nM. The Kd [23] was 29.3 nM, the Kd [24] was 11.1 nM and the Kd [25] was 5.9 nM. The Kd [26] was less than 0.01 nM, the Kd [27] was 0.2 nM and the Kd [4] was 0.3 nM. It also gave a Kd [28] of 16.7 nM, a Kd [29] of 15.1 nM and a Kd [5] of 0.4 nM. It also gave a Kd [6] of 0.6 nM, a Kd [30] of 0.04 nM and a Kd [7] of 0.4 nM. It also gave a Kd [8] of 0.04 nM, a Kd [31] of 16.3 nM and a Kd [32] of 9.7 nM. It also gave a Kd [33] of 1 nM, a Kd [9] of 22.4 nM and a fractional antibody reactivity after 10 cycles of freeze-thaw [34] of 1. For the same substance, the fractional antibody reactivity after 50 °C [34] was 1, the fractional antibody reactivity after 70 °C [34] was 1 and the fractional antibody reactivity after osmolarity 10 mM [34] was 0.9. The fractional antibody reactivity after osmolarity 3000 mM [34] was 0.6, the fractional antibody reactivity after pH 3.5 [34] was 0.8 and the fractional antibody reactivity after pH 10.0 [34] was 1.1.
